The source of these data is paper PMC11839083 (bioRxiv, 2025).

The data set deals with the molecule itself. Nature of the data set: cryo-EM structure.

B1: C1-GS4 (Aae NtrC1 residues 121–387 with GSGSLGQYL at the C-terminus) (other)
chain: LRKENELLRREKDLKEEEYVFESPKMKEILEKIKKISCAECPVLITGESGVGKEVVARLIHKLSDRSKEPFVALNVASIPRDIFEAELFGYEKGAFTGAVSSKEGFFELADGGTLFLDEIGELSLEAQAKLLRVIESGKFYRLGGRKEIEVNVRILAATNRNIKELVKEGKFREDLYYRLGVIEIEIPPLRERKEDIIPLANHFLKKFSRKYAKEVEGFTKSAQELLLSYPWYGNVRELKNVIERAVLFSEGKFIDRGELSCLVNSKGSGSLGQYL
On to B1, for which the binding result is recorded as “binds”.
